For 2 sequences, activity (% FatB5 mRNA reduction) and activity (KasII/tubulin mRNA ratio) results are on record in patent US20110167521.

What all share (test): cell_activity
Data set [1] has as its system ZFP 13722-KRAB1 (artificial). Particulars: homozygous T2 immature seed, event 5212-4; no apparent effect in heterozygous.
The test system of data set [2] is ZFP 13722-NtERF3 (artificial). The note with it: homozygous T2 immature seed, event 5227-12, p=0.025; no apparent effect in heterozygous.
The test system of data set [3] is ZFP 14025-VP16 (artificial). Particulars: callus, control 2.90; 27% up-regulation p=0.05; more than 3-fold in some T0 events.

As for “AAGGAGAATTTTAGGGTTTGGGGAGACT (double strand) [FatB5 13722 target]”, the results for the activity (% FatB5 mRNA reduction) in data set [1] and in data set [2] were 15 and 21, respectively.
Regarding “CGTGGAGACGTCAAAAGA (double strand) [KASII 14025 target]”, in data set [3], the activity (KasII/tubulin mRNA ratio) was 3.69.
